Data reported in patent publication US8008074B2, “Compositions and methods for improving bone mass through modulation of receptors of PTH and fragments thereof” (The UAB Research Foundation, priority 2006, dated 2011).

Tests used:
Type in all cases: cell-based
[1] = target: T1, TGFβRII/PTH1R interaction (Homo sapiens, UniProt P37173+Q03431); experiment: Co-immunoprecipitation of TGFβRII and PTH1R in 293 cells; conditions: cotransfected HEK293 cells; 10% FBS medium; PTH stimulation
T1 construct: The 293T cells endogenously expressed TGFβRII; endogenous in cells; host or cells: 293T
Method: Human embryonic kidney 293T cells in DMEM with 10% serum were treated with vehicle (water), TGF-β (2 ng/ml), or PTH (1-34) (50 nM) for 24 hours. The 293T cells endogenously expressed TGFβRII. The cells were cultured in DMEM with 10% serum and were split at 30%-40% confluent.
Immunoprecipitation assays were performed as described previously (Shi et al., 2004, J. Cell. Biol. 164:291-300). TGFβRII was immunoprecipitated from the cell extracts using anti-TGFβRII antibody (Santa Cruz Biotechnology, Inc.; 1:250 dilution), and the immunocomplex was detected by Western blotting with an antibody specific for PTH1R (Santa Cruz Biotechnology, Inc.; 1:200 dilution) to detect PTH1R protein. […] Furthermore, the interaction of PTH1R with TGFβRII can be in the form of monomers or dimers.
Next, the interaction was examined using a biochemical approach. PTH1R-HA was contransfected in HEK293 cells with Flag-TβRII. The cell lysate was subjected to HA immunoprecipitation, and associated TβRII was immunoblotted with anti-Flag antibody. TβRII specifically coprecipitated with PTH1R (FIG. 11) in 10% FBS medium, and the interaction was enhanced by PTH stimulation, whereas the kinase-dead mutant of TβRII lost the interaction with PTH1R (data not shown) even with treatment of PTH. The interaction of endogenous PTH1R and TβRII was also examined. […]

LRP6/Axin binding = experiment: Axin-LRP6 binding immunoprecipitation assay; conditions: without added GSK3β; data not shown
PTH1R/LRP6 complex = PTH1R/LRP6 complex (Homo sapiens, UniProt Q03431)
LRP6 [2] = target: T2, LRP6 (Rattus norvegicus, UniProt A0A0G2K0H3); experiment: LRP6 phosphorylation at the PPPSP motif (Western blot); conditions: UMR-106 cells, endogenous LRP6; data not shown
T2 construct: The cell lysates were immunoprecipitated for endogenous LRP6; endogenous in cells; host or cells: UMR-106
Method: (§1) UMR-106 cells were treated with either PTH or Wnt-3a. The cell lysates were immunoprecipitated for endogenous LRP6, and the precipitated immunocomplexes were detected by Western blotting with an antibody that specifically recognizes the phosphorylated PPPSP motifs (aa, 1490) (Tamai et al., 2004). […] To further confirm the role of PTH in inducing phosphorylation of LRP5 and LRP6 individually, HEK293 cells were transfected with HA-tagged LRP5, and the phosphorylated LRP5 was detected by Western blotting of the anti-HA immunoprecipitates with Ab1490.
(§2) If the observation is true, then the phosphorylated PPPSP motif will serve as an Axin docking site.

LRP6 [3] = target: T3, LRP6 (Homo sapiens, UniProt O75581); experiment: as above; conditions: without added GSK3β; data not shown
T3 construct: The cell lysates were immunoprecipitated for endogenous LRP6; endogenous in cells; host or cells: UMR-106
Method: as §1, §2

LRP5 = target: T4, LRP5 (Homo sapiens, UniProt O75197); experiment: LRP5 PPPSP phosphorylation in HEK293 cells (Ab1490 Western blot); conditions: HEK293 cells transfected with HA-tagged LRP5; at 45 minutes; 5×10^−7 M PTH (1-84)
T4 construct: expressed in transfected cells; host or cells: HEK293
Method: HEK293 cells transfected with HA-tagged LRP5 were treated with conditioned medium containing Wnt-3a (lane 1), control medium with 5×10^−7 M PTH (1-84) for the indicated time periods (lane 3-5), or without PTH treatment (lane 2). Phosphorylated LRP5 was detected by Western blotting of the anti-HA immunoprecipitates with Ab1490, which specifically recognizes phosphorylated PPPSP sites within LRP5/6. […] VSVG-tagged LRP6 was cotransfected into HEK 293 cells with HA-Axin and GSK3β, and the cells were treated with or without 10^−7 M PTH (1-84) for the indicated time periods. The LRP6-associated Axin was determined by Western blotting of the anti-VSVG immunoprecipitates with anti-HA antibody. […] The LRP6-associated Axin was determined by Western blotting of the anti-VSVG immunoprecipitates with anti-HA antibody. […] The association of axin with wild type and mutant proteins was determined by Western blotting of the anti-VSVG immunoprecipitates with anti-HA antibody. […] Then luciferase activities were determined.
UMR-106 cells were treated with either PTH or Wnt-3a. The cell lysates were immunoprecipitated for endogenous LRP6, and the precipitated immunocomplexes were detected by Western blotting with an antibody that specifically recognizes the phosphorylated PPPSP motifs (aa, 1490) (Tamai et al., 2004). […]

T1 sequence (Q03431 27-593): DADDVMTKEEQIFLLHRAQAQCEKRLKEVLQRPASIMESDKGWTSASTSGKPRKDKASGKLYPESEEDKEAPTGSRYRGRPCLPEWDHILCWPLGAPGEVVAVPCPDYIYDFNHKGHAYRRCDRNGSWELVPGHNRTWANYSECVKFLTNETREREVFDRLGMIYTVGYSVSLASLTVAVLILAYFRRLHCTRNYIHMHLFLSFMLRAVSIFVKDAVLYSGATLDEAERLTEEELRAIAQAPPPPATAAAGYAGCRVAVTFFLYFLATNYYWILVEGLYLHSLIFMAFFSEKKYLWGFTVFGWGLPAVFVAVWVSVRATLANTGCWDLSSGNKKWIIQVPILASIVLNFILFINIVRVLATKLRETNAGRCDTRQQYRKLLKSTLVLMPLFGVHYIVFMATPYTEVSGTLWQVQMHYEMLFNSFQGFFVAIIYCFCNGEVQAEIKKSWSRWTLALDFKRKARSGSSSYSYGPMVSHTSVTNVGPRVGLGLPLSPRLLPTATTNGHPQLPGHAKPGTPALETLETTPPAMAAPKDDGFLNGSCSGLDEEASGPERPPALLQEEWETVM
T1 sequence (P37173 23-567): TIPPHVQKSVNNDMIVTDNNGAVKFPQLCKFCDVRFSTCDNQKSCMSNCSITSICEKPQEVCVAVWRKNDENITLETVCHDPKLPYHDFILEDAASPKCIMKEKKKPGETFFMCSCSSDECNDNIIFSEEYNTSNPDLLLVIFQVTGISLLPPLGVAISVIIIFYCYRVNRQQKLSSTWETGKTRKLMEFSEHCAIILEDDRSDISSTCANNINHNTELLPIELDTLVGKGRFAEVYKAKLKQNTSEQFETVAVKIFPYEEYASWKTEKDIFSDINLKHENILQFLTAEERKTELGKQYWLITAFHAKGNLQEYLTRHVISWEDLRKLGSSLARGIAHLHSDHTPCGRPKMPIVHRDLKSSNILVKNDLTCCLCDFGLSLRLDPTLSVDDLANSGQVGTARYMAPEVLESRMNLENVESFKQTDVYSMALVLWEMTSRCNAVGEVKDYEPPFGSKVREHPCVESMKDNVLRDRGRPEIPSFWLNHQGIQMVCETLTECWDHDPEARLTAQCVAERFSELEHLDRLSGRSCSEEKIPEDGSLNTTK
T3 sequence (O75581 20-1613): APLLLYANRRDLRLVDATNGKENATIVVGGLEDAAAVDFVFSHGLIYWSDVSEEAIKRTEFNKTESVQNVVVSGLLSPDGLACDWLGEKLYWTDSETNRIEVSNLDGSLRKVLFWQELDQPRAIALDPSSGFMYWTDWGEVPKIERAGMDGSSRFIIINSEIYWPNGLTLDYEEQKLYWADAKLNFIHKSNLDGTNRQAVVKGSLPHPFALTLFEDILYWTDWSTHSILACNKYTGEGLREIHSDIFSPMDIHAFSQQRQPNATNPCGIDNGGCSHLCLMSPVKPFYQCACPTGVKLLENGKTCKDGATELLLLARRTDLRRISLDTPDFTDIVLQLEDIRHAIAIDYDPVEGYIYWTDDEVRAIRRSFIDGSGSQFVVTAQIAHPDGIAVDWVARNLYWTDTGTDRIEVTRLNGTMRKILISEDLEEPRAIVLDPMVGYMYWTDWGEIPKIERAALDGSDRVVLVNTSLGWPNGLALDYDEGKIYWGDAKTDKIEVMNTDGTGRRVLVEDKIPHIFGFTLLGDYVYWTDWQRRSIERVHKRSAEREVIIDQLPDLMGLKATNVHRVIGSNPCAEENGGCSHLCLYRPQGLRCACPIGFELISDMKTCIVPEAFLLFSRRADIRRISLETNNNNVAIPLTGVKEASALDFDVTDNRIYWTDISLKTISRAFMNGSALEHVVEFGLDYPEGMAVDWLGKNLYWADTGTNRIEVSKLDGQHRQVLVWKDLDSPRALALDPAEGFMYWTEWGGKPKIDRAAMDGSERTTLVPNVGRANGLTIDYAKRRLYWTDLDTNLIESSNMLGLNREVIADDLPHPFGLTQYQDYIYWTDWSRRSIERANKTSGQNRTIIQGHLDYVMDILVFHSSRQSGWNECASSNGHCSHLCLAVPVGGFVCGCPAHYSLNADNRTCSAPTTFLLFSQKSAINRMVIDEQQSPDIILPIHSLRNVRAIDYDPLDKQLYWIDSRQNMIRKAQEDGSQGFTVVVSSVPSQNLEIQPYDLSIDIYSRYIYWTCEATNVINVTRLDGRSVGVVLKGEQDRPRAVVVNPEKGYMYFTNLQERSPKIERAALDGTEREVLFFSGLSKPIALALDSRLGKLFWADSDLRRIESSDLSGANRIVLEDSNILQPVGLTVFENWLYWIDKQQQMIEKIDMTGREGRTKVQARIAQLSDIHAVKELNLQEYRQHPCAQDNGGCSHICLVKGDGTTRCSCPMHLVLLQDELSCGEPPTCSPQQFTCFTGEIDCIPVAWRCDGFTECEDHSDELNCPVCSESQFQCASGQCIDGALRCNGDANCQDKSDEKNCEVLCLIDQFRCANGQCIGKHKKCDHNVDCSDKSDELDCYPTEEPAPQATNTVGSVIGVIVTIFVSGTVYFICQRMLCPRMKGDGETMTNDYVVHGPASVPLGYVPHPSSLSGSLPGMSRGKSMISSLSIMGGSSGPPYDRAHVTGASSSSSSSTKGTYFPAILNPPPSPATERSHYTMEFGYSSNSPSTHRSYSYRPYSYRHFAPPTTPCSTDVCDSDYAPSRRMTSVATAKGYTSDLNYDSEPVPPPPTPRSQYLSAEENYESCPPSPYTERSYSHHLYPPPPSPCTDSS
T4 sequence (O75197 32-1615, species assumed): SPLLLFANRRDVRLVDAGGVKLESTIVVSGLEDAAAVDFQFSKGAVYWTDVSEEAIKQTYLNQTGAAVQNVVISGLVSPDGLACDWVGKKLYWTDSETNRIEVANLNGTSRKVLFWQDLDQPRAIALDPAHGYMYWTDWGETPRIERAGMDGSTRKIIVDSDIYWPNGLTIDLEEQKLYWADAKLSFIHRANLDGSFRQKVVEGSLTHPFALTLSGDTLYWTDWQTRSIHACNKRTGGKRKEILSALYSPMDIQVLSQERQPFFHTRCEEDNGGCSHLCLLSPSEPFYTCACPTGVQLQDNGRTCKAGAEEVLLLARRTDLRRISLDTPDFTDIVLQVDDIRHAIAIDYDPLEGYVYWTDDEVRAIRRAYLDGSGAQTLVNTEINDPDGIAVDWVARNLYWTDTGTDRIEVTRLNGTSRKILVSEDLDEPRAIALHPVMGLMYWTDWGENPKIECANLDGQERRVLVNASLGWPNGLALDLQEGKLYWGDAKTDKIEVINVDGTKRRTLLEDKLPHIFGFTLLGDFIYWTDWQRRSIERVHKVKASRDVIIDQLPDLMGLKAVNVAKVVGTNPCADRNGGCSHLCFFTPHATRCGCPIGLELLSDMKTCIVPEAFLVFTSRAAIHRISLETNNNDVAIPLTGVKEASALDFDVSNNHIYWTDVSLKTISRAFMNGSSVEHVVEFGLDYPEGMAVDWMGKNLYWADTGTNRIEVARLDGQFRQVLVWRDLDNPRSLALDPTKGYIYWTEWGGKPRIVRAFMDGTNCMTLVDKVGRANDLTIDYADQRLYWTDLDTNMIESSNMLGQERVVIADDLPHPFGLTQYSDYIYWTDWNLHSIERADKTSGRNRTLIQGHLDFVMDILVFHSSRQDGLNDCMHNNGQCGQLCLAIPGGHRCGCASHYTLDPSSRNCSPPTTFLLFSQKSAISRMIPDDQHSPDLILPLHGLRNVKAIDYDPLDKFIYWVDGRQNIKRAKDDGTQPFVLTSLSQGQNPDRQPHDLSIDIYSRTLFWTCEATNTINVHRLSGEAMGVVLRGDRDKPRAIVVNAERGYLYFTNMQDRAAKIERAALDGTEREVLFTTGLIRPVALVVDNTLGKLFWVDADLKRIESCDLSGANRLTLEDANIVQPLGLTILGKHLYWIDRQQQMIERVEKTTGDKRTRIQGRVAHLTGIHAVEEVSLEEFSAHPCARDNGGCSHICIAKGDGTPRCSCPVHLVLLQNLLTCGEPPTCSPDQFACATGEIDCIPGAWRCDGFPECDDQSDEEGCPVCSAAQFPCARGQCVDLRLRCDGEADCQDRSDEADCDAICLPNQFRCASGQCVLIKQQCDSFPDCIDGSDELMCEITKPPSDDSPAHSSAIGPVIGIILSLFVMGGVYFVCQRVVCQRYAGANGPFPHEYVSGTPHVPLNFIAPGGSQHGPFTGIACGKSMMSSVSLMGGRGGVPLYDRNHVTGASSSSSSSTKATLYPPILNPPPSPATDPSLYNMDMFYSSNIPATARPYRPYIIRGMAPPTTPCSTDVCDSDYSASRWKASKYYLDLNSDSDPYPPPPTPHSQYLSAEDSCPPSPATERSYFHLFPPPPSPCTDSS

PTH: Parathyroid hormone ligand, form not stated at the place; figure legends give PTH (1-84) or PTH (1-34)
interaction of PTH1R-HA with Flag-TβRII [1]: enhanced | Axin/LRP6 binding, PTH alone (LRP6/Axin binding): undetectable | enhancement of interaction of PTH1R with LRP6N or LRP6 (PTH1R/LRP6 complex): did not enhance the interaction of PTH1R with LRP6N or LRP6 | LRP6-associated PTH ligand (anti-VSVG immunoprecipitates, anti-PTH blot) (PTH1R/LRP6 complex; HEK 293 cells, 5×10^−7 M PTH (1-84) for 1 hour): immunoprecipitated only when both LRP6 and PTH1R were cotransfected | LRP6 phosphorylation at the PPPSP motif (LRP6 [2]): rapidly induced LRP6 phosphorylation at the PPPSP motif | phosphorylation of LRP6, PTH alone (LRP6 [3]): much weaker stimulation | LRP5 phosphorylation (PPPSP) (LRP5): dramatically stimulated LRP5 phosphorylation
